Data: article PMC9368491

Target: β-catenin (endogenous) (UniProt P35222)
Assay: anti-Cav-1 IP, β-catenin blot
Settings: reference: WT Cav-1, DMSO; sites Y14

binding against the reference: weaker
Substance: Caveolin-1 (Cav-1) (from UniProt Q03135) Y14F Cav-1, DMSO
